Test results taken from article PMC9800336, “Exploration of the cysteine reactivity of human inducible Hsp70 and cognate Hsc70” (The Journal of Biological Chemistry, 2022).
Ends that are not written are not given here. * marks the point of attachment. FITC = O=C1OC2(c3ccc(O)cc3Oc3cc(O)ccc32)c2ccc(NC(=S)*)cc21

What was measured:
Conditions in all cases: both partners purified
WT hHsp70 (human HspA1A) = molecular target: T1, WT hHsp70 (human HspA1A) (human, UniProt P0DMV8 1-641); assay: fluorescence polarisation; kinetic; 20 nM FAR mixed with 10 μM hHsp70 in the presence of 1 mM ADP, RT, FP recorded against time; diamide or diamide with GSH added at 60 min, DTT at 120 min
T1 construct: human HspA1A (hHsp70), UniProtKB P0DMV8, full length; also called HspA1A/B; human inducible Hsp70

[1] = molecular target: T2, hHsp70-C17/C574/C603 (hHsp70 C267S/C306S), untreated control (human, UniProt P0DMV8 1-641, C267S | C306S); assay: fluorescence polarisation; steady state; increasing concentrations of Hsp70 with 20 nM FAR peptide, 60-min incubation, RT, buffer B (50 mM Tris-HCl pH 7.5, 100 mM KCl, 5 mM MgCl2); single site-binding model
T2 construct: human HspA1A (hHsp70), UniProtKB P0DMV8, full length with C267S/C306S; also called unmodified form

[2] = molecular target: T3, disulfide-bonded hHsp70-C17/C574/C603 (human, UniProt P0DMV8 1-641, C267S | C306S, intramolecular disulfide bond between Cys574 and Cys603); assay: as above
T3 construct: human HspA1A (hHsp70), UniProtKB P0DMV8, full length with C267S/C306S; also called -S-S-; disulfide-bonded form of full length hHsp70
T3 sequence (P0DMV8 whole entry C267S/C306S): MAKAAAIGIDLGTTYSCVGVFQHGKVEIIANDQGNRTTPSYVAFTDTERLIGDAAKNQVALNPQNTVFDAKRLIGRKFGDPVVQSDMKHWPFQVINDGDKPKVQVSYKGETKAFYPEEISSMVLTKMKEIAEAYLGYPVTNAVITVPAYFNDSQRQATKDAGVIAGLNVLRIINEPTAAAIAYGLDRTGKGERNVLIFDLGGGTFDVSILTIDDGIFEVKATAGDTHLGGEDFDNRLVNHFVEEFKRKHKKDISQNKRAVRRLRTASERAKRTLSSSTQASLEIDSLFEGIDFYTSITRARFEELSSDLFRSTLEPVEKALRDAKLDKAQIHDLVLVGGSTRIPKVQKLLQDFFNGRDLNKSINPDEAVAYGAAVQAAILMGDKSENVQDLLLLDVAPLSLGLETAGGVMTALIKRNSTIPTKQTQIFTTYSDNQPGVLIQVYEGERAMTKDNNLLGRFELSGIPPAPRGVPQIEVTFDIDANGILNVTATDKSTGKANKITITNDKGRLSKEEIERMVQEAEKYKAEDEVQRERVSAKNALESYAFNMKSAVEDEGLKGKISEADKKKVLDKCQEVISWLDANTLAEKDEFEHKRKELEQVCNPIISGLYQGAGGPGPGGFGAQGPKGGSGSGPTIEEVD

T1 sequence (P0DMV8 whole entry): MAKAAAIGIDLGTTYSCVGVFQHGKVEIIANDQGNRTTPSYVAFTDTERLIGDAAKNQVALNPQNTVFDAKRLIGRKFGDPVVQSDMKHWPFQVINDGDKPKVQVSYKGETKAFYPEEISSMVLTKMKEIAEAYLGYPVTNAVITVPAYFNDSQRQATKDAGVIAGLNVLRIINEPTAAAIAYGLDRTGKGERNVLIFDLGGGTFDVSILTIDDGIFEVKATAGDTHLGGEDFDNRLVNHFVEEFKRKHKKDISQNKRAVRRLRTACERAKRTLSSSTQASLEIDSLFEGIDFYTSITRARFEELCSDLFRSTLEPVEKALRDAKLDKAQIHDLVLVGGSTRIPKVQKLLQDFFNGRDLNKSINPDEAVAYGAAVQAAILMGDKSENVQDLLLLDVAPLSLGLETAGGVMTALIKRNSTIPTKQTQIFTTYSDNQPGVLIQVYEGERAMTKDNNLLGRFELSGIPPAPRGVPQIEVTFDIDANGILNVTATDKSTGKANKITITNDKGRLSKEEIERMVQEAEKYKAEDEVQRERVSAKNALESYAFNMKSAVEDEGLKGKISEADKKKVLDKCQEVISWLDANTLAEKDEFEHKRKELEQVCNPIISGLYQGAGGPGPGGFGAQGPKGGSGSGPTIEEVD
T2 sequence (P0DMV8 whole entry C267S/C306S): as the sequence (P0DMV8 whole entry C267S/C306S) above

binding result (WT hHsp70 (human HspA1A)): binds | binding result [1]: binds | binding result [2]: binds
B1: FITC-ALLLSAPRR peptide (peptide)
peptide: {FITC}-ALLLSAPRR
notes: fluorescently labelled model substrate peptide of Hsp70; also called FAR; FAR peptide
